From patent US20260132200A1 (Regeneron, published 2026)

T1: human CD3 expressed on cells (Jurkat, a CD3+ human T-cell line; human T cells) (human, UniProt P07766 23-126; P04234 22-100)
T1 chain 1: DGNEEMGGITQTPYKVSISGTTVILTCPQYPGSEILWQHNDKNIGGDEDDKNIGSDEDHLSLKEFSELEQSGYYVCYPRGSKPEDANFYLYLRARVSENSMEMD
T1 chain 2: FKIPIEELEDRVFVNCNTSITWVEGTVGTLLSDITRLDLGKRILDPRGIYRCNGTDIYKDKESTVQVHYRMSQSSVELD


Molecular target: T1, human CD3 expressed on cells (Jurkat, a …)
Assay: cell-based or functional assay

| Binder | U937 Cytotoxicity Human T-cells [M] (EC50) |
| --- | --- |
| H2M2690N (antibody, mouse IgG2, V domains shown) VH: EVQLVESGGGLVQPGRSLRLSCAASGFTFDDYTMHWVRQAPGKGLEWVSGISWNSGSIGYADSVKGRFTISRDNAKKSLYLQMNSLRAEDTALYYCAKDNSGYGHYYYGMDVWGQGTTVTVAS VL: EIVMTQSPATLSVSPGERATLSCRASQSVSSNLAWYQQKPGQAPRLLIYGASTRATGIPARFSGSGSGTEFTLTISSLQSEDFAVYYCQHYINWPLTFGGGTKVEIK | 2.79e-11 M |
| H2M2708N (antibody, mouse IgG2, V domains shown) VH: QVQLVESGGGVVQPGRSLRLSCAASGFTFRSFGMHWVRQAPGRGLEWVAMIYFDGKNKYYADSVRGRFTISRDNSKNTLYLEMSSLRAEDTAVYFCARGPGYNWLDPWGQGTLVTVSS VL: EIVMTQSPATLSVSPGERVTLSCRASQSISRNLAWYQQKPGQAPRLLIYGASTRATGVPARFSGSGSGTEFTLTISSLQSEDFAVFHCQQYNNRPLTFGGGTEVEIK | 3.27e-12 M |
| H1M2712N (antibody, mouse IgG1, V domains shown) VH: EVQLVESGGGLVQPGGSLRLSCAATGFTFDDFTMHWVRQAPGKGLEWVSGISWNSGSIGYVDSVKGRFTISRDNAKNSLYLQMNSLRAEDTALYYCAKDNSGYGYYYYGMDVWGQGTTVTVSS VL: EIVMTQSPATLSVSPGERATLSCRASHSVSRNSAWYQQKPGQAPRLLIYGASTRATGIPARFSGSGSGTEFTLTISSLQSEDFAIYYCQQYNNWPLTFGGGTKVEIK | 3.14e-10 M |
| H2M2779N (antibody, V domains shown) VH: EVQLVESGGGLVQPGGSLRLSCAATGFTFDDFTMHWVRQAPGKGLEWVSGISWNSGSIGYVDSVKGRFTISRDNAKNSLYLQMNSLRAEDTALYYCAKDNSGYGYYYYGMDVWGQGTTVTVSS VL: not shown | 6.75e-10 M |
| H2M2774N (antibody, mouse IgG2, V domains shown) VH: QVQLVESGGGVVQPGRSLRLSCVASGFTFRSYGMHWVRQAPGKGLQWVAMIYYDGKNKYYADSVRGRFTISRDNSKNTLYLQMNSLRAEDTAMYFCARGPGYNWLDPWGQGTLVTVSS VL: EIVMTQSPATLSVSPGERATLSCRASQRISSNLAWYQQKPGQAPRLLIYGASTRATGSPARFSGSGSGTEFTLTISSLQSEDVAVYYCQQHNNWPLTFGGGTKVEIK | 2.46e-12 M |
| H2M2862N (antibody, mouse IgG2, V domains shown) VH: QVQLVESGGGVVQPGRSLRLSCAASGFTFRSYGMHWVRQAPGKGLEWVAMIYYDGNNKKYADSVRGRFTISRDNSKNTLYLQMNSLRVEDTAVYFCARGPGYNWLDPWGQGTLVTVSS VL: EIVMTQSPATLSVSPGERATLSCRASQSVSRNLAWYQQKPGQAPRLLIYGASTRATDIPARFSGSGSGTEFILNISSLQSEDFALYYCQQYSNWPLTFGGGTEVEIK | 7.66e-12 M |
| H2M2777N (antibody, mouse IgG2, V domains shown) VH: QVQLVESGGGVVQPGRSLRLSCIASGFTFRSYGMHWVRQAPGKGLEWVAMIYYDGNNKYYADSVRGRFTISRDNSKNTLYLQMNSLRADDTAVYFCARGPGYNWLDPWGQGTLVTVSS VL: EIVMTQSPATLSVSPGERATLSCRASQSVSSNLAWYQQKPGQAPRLLIYGASTRATGIPARFSGSGSGTEFTLTISSLQSEDFAVYYCQQYNNRPLTFGGGTKVEIK | 4.86e-12 M |
| H2M2691N (antibody, mouse IgG2, V domains shown) VH: EVQLVESGGGLVQPGRSLRLSCAASGFTFDDYTMHWVRQAPGKGLEWVSGISWNSGSIGYADSVKGRFTISRDNAKKSLYLQMNSLRAEDTALYYCAKDNSGYGHYYYGMDVWGQGTTVTVAS VL: EIVMTQSPATLSVSPGERATLSCRASQSVSSNLAWYQQKPGQAPRLLIYGASTRATGIPARFSGSGSGTEFTLTISSLQSEDFAVYYCQHYINWPLTFGGGTKVEIK | 2.34e-11 M |
| H2M2707N (antibody, mouse IgG2, V domains shown) VH: QVQLVESGGGVVQPGRSLRLSCIASGFTFRSYGMHWVRQAPGKGLEWVAMIYYDGNNKYYADSVRGRFTISRDNSKNTLYLQMNSLRADDTAVYFCARGPGYNWLDPWGQGTLVTVSS VL: EIVMTQSPATLSVSPGERATLSCRASQSVSSNLAWYQQKPGQAPRLLIYGASTRATGIPARFSGSGSGTEFTLTISSLQSEDFAVYYCQQYNNRPLTFGGGTKVEIK | 7.21e-12 M |
| H2M2706N (antibody, mouse IgG2, V domains shown) VH: QVQLVESGGGVVQPGRSLRLSCAASGFTFRSYAMHWVRQAPGKGLEWVAMVYYDGNNQYYADSVRGRFTISRDNSKNTLYLQMNSLRADDTAVYFCARGPGYNWLDPWGQGTLVTVSS VL: EIVMTQSPATLSVSPGERATLSCRASQSVSRNLAWYQQKPGQAPRLLIYGASTRATGIPARFSGSGSGTDFTLTISSLQSEDFAVYYCQQYNNWPLTFGGGTKVVIK | 7.91e-12 M |
| H1M2692N (antibody, mouse IgG1, V domains shown) VH: EVQLVESGGGLVQPGGSLRLSCAASGFSFDDYTMHWVRQPPGKGLEWVSGISWNSGSIGYADSVKGRFTISRDNAKNSLYLQMNSLRAGDTALYYCAKDNSGYGYYYYYGMDVWGQGTTVTVSS VL: EIVMTQSPATLSVSPGERATLSCRASQSVSSNLAWYQQKPGQAPRLLIYGASTRATGIPARFSGSGSGTEFTLTISSLQSEDFAVYYCQQYYNWPLTFGGGTKVEIK | 3.59e-10 M |
| H2M2711N (antibody, V domains shown) VH: QVQLVESGGGVVQPGRSLRLSCAASGFTFRSFGMHWVRQAPGRGLEWVAMIYFDGKNKYYADSVRGRFTISRDNSKNTLYLEMSSLRAEDTAVYFCARGPGYNWLDPWGQGTLVTVSS VL: EIVMTQSPATLSVSPGERATLSCRASQSVSRNLAWYQQKPGQAPRLLIYGASTRATGVPARFSGSGSGTEFTLTISSLQSEDFAVFHCQQYNNRPLTFGGGTEVEIK | 3.66e-12 M |
| H2M2710N (antibody, V domains shown) VH: QVQLVESGGGVVQPGRSLRLSCAASGFTFRSFGMHWVRQAPGRGLEWVAMIYFDGKNKYYADSVRGRFTISRDNSKNTLYLEMSSLRAEDTAVYFCARGPGYNWLDPWGQGTLVTVSS VL: EIVMTQSPATLSVSPGERATLSCRASQSVSRNLAWYQQKPGQAPRLLIYGASTRATGVPARFSGSGSGTEFTLTISSLQSEDFAVFHCQQYNNRPLTFGGGTEVEIK | 3.97e-12 M |
| H2M2885N (antibody, mouse IgG2, V domains shown) VH: QVQLVESGGGVVQPGRSLRLSCAASGFTFRSFGMHWVRQAPGRGLEWVAMIYFDGKNKYYADSVRGRFTISRDNSKNTLYLEMSSLRAEDTAVYFCARGPGYNWLDPWGQGTLVTVSS VL: EIVMTQSPATLSVSPGERVILSCRASQSISRNLAWYQQKPGQAPRLLIYGATTRATGVPARFSGSGSGTEFTLTISSLQSEDFAVFYCQQYNNRPLTFGGGTEVEIK | 3.71e-12 M |
| H2M2886N (antibody, mouse IgG2, V domains shown) VH: QVQLVESGGGVVQPGRSLRLSCAASGFTFRSFGMHWVRQAPGRGLEWVAMIYFDGKNKYYADSVRGRFTISRDNSKNTLYLEMSSLRAEDTAVYFCARGPGYNWLDPWGQGTLVTVSS VL: EIVMTQSPATLSVSPGERVILSCRASQSISRNLAWYQQKPGQAPRLLIYGATTRATGVPARFSGSGSGTEFTLTISSLQSEDFAVFYCQQYNNRPLTFGGGTEVEIK | 8.06e-12 M |
| H2M2775N (antibody, mouse IgG2, V domains shown) VH: QVQLVESGGGVVQPGRSLRLSCAASGFTFRSFGMHWVRQAPGRGLEWVAMIYFDGKNKYYADSVRGRFTISRDNSKNTLYLEMSSLRAEDTAVYFCARGPGYNWLDPWGQGTLVTVSS VL: EIVMTQSPATLSVSPGERVILSCRASQSISRNLAWYQQKPGQAPRLLIYGATTRATGVPARFSGSGSGTEFTLTISSLQSEDFAVFYCQQYNNRPLTFGGGTEVEIK | 3.38e-12 M |
| H2M3547N (antibody, mouse IgG2, V domains shown) VH: EAQLVESGGGLVQPGRSLRLSCTTSGFTFDDYTMHWVRQAPGKGLEWISDISWNGGTKGYADSVKGRFTISRDNAKNSLYLQMDSLRGEDTALYYCVKDKSGYGHFYFGLDVWGQGTTVTVSS VL: DIQMTQSPSSLTASVGDRVTFTCRASQSISRHLSWYQQKPGKAPKLLIYAASSLESGVPSRFSGSGSGTDFTLTISSLHPEDFATYYCQQSYSNPPITFGQGTRLEIK | 3.17e-11 M |
| H2M3540N (antibody, mouse IgG2, V domains shown) VH: QVHLEESGGGVVQPGRSLRLSCSASGFTFSSYAMHWVRQAPGKGLEWVAVIWYDGTNKYYLDSVKGRFTISRDNSKNTLFLQMNSLRAEDTAVYYCARDRGSIITHWGQGTLVTVSS VL: DIQMTQSPSSLSASIGDRVTITCRASQNISSYLNWYQQKPGKAPKLLIYAASSLQSGVPSRFSGSGSGTDFTLTISSLQPEDFATYYCQQTYSTPPITFGQGTRLEIK | 1.25e-11 M |
| H2M3543N (antibody, mouse IgG2, V domains shown) VH: EVQLVESGGGLVQPGRSLRLSCAASGFTFDDYTMHWVRQAPGKGLEWVSDISWNSGSIGYADSVKGRFTVSRDNAKNSLYLQMNSLRGEDTALYYCAKDMSGYAHYGYYGMDVWGQGTTVTVSS VL: DIQMTQSPSSLSASVGDRVTITCRASQSIRNYLNWYQQKPGKVPKLLIYAASSLQSGVPSRFSGSGSGTDFTLTISSLQPEDFATYYCQQSYSNPPITFGQGTRLEIK | 1.31e-11 M |
| H2M3541N (antibody, mouse IgG2, V domains shown) VH: EVQLVESGGGLVRPGRSLRLSCAASGFTFDDYTMHWVRQAPGKGLEWVSDISWNSGTIGYADSVKGRFTISRDNAKNSLYLQMNSLRPEDTALYYCAKDMSGYAHYYYYGMDVWGQGTTVTVSS VL: not shown | 5.39e-11 M |
| H1M3542N (antibody, mouse IgG1, V domains shown) VH: EVQLVESGGGLVQPGRSLRLSCVASGFPFADYTMHWVRQAPGKGLEWVSDISWNSGSKGYADSVKGRFTISRDNAKNSLYLQMNSLRTEDTAFYYCAKDMSGYAHYFYYGMDVWGQGTTVTVSS VL: not shown | 2.92e-11 M |
